# Test results reported in publication PMC11430614, “Bacterial Purine Nucleoside Phosphorylases from Mesophilic and Thermophilic Sources: Characterization of Their Interaction with Natural Nucleosides and Modified Arabinofuranoside Analogues” (Biomolecules, 2024).
# Key:
# [1] = test system: Nc1ncnc2c1ncn2[C@@H]1O[C@H](CO)[C@@H](O)[C@H]1O; test: purified protein; details: 50 mM KH2PO4, pH 7.5, 25 °C, phosphorolysis
# [2] = test system: T1, EntPNP (PNP from Enterobacter); test: HPLC phosphorolysis assay, Michaelis-Menten fit; format: biochemical, Enterobacter sp.; details: 50 mM KH2PO4, pH 7.5, 25 °C, tested up to 4 mM, no plateau
# T1 construct: commercial preparation (Sigma-Aldrich); acts on 6-oxopurine nucleosides only
# Text: HPLC phosphorolysis assay, Michaelis-Menten fit on EntPNP (PNP from Enterobacter)
# [3] = test system: T1, EntPNP (PNP from Enterobacter); test: coupled xanthine oxidase assay, […] nm, Michaelis-Menten fit; format: biochemical, Enterobacter sp.; details: 50 mM KH2PO4, pH 7.5, 25 °C; phosphorolysis
# [4] = substrate: OC[C@H]1O[C@@H](n2cnc3c(O)ncnc32)[C@H](O)[C@@H]1O; test: purified protein; format: biochemical, Escherichia coli; details: 50 mM KH2PO4, pH 7.5, 25 °C, phosphorolysis
# [5] = substrate: O=c1[nH]cnc2c1ncn2[C@@H]1O[C@H](CO)[C@@H](O)[C@@H]1O; test: HPLC phosphorolysis assay, Michaelis-Menten fit; format: biochemical, Escherichia coli; details: 50 mM KH2PO4, pH 7.5, 25 °C, tested up to 4 mM, no plateau
# Text: HPLC phosphorolysis assay, Michaelis-Menten fit on EcPNP
molecule,measurement,setting,value
EcPNP (Escherichia coli K-12),Km,[1],21 ± 5 µM
same,kcat,[1],137.7 s⁻¹
O=c1[nH]cnc2c1ncn2[C@@H]1O[C@H](CO)[C@@H](O)[C@@H]1O [9-(β-D-arabinofuranosyl)hypoxanthine],Km,[2],2900 ± 831 µM
O=c1[nH]cnc2c1ncn2[C@@H]1O[C@H](CO)[C@@H](O)[C@H]1O [inosine],Km,[3],107 ± 21 µM
"EcPNP (Escherichia coli K-12) (protein, recombinant from plasmid pER-EcPNP, host E. coli ER2566) ATPHINAEMGDFADVVLMPGDPLRAKYIAETFLEDAREVNNVRGMLGFTGTYKGRKISVMGHGMGIPSCSIYTKELITDFGVKKIIRVGSCGAVLPHVKLRDVVIGMGACTDSKVNRIRFKDHDFAAIADFDMVRNAVDAAKALGIDARVGNLFSADLFYSPDGEMFDVMEKYGILGVEMEAAGIYGVAAEFGAKALTICTVSDHIRTHEQTTAAERQTTFNDMIKIALESVLLGDKE",Km,[4],76 ± 21 µM
same,kcat,[4],29.2 s⁻¹
same,Km,[5],1810 ± 371 µM
same,kcat,[5],0.709 s⁻¹
